Test results published in patent US20230295323A1 (DONGDA BIOSCIENCE INC SUZHOU, published 2023).
Substitutions are numbered along the chain they refer to. Names and notes keep the numbering of the source. Each block holds one binder with its values, some of them ahead of it.

Key:
[1] = molecular target: T1, human GITR on cells (293T-GITR, Jurkat-hGITR / Jurkat-GITR, Jurkat-GITR-NF-kB, 293T-GITR-NFkb-luc, primary … (human, UniProt Q9Y5U5 26-241)); test: FACS (MFI), binding to Jurkat-GITR cells
T1 construct: whole, on cells; also called TNFRSF18; CD357
T1 sequence (looked up): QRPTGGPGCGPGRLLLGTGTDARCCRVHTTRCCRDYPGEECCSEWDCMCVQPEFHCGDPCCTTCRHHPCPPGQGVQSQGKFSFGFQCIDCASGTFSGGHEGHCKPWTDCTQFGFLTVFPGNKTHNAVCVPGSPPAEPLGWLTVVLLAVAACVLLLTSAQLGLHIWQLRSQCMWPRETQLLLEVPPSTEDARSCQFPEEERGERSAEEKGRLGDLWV

[2] = molecular target: T1, human GITR on cells (293T-GITR, …); test: FACS, blocking of GITR-L (0.25 ug/mL) binding to Jurkat-GITR cells
human GITR (ECD)-mFc = molecular target: T2, human GITR (ECD)-mFc (human, UniProt Q9Y5U5 26-162); test: ELISA, plate-coated GITR-mFc
T2 construct: extracellular domain; Bought (Dongda Bioscience); also called GITR-mFc; not shown: mouse Fc (mFc)
T2 sequence (looked up): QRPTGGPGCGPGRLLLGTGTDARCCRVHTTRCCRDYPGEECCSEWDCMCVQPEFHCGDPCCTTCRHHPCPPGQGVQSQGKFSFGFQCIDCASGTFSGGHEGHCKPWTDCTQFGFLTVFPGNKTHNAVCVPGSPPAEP
Method: As indicated by the X axis, the concentrations of the test antibodies were 20000 ng/mL, 2000 ng/mL, 200 ng/mL, 20 ng/mL, 2 ng/mL, 0.2 ng/mL, 0.02 ng/mL, 0.002 ng/mL, 0.0002 ng/mL, and 0.00002 ng/mL.

GITR-ECD-hFc = molecular target: T3, GITR-ECD-hFc (UniProt Q9Y5U5 26-162, limits assumed); test: ELISA, plate-coated GITR-ECD-hFc
T3 construct: extracellular domain; not shown: human Fc (hFc)
T3 sequence (looked up): T2 sequence (looked up)
Method: ELISA assay: a 96-well ELISA plate (Corning, Cat No: 9018) was inoculated with GITR-ECD-hFc, left standing overnight at 4° C., and washed 3 times with washing buffer (PBS+0.05% Tween 20), then blocking buffer (PBS+1% BSA (Sigma, Cat No: V90093)) was added, and the 96-well ELISA plate was incubated for 1 hour and washed 3 times; hybridoma supernatant was added, the 96-well ELISA plate was incubated for 1 hour and washed 3 times, 100 µL of goat anti-mouse IgG secondary antibodies (Thermo, Cat No: 31432) diluted at a ratio of 1:10000 was added into each well, and the 96-well ELISA plate was incubated at room temperature for 1 hour and washed 3 times. 100 µL of TMB (Biosubstrate Technologies, Cat No: ES-002) was added into each well and left standing for 3 minutes for color development, then a stop solution (2N H₂SO₄) was added at a dose of 100 µL/well to terminate the reaction, and OD450×signal of each sample was measured with a Tecan Spark microplate reader.

[3] = molecular target: T1, human GITR on cells (293T-GITR, …); test: FACS competition on Jurkat-hGITR cells; competitor biotin-labeled human GITR ligand
Method: FACS assay for the blocking effect of the antibodies: FACS assay was conducted by using BD C6 to determine the blocking effect of the hybridoma antibodies on the binding of biotin-labeled human GITR ligands to Jurkat-hGITR cells. Jurkat-hGITR cells were suspended in FACS buffer (PBS containing 3% FBS). Diluted hybridoma antibodies were added into the cell suspension and the mixture was incubated in a 96-well plate for 1 hour at 4° C. […] After incubation, the 96-well plate was washed 3 times, and mouse anti-biotin PE antibodies (Biolgend, Cat No: 409004) were added and incubated at 4° C. for 0.5 hours. The cells in the 96-well plate were washed 3 times and finally analyzed with BD C6.

B1: h4B11-hIgG1 (antibody, V domains shown)
VH: EVQLVQSGAEVKKPGASVKVSCKASGFTFTDSVLHWVRQAPGQRLEWIGYIHPYNDDTKFHDSFKGRATLTSDKSASTAYMELSSLRSEDTAVYYCSRNDELRVALDYWGQGTLVTVSS
VL: EIVLTQSPATLSLSPGERATLSCRASQSVSTSTYSYVHWYQQKPGQAPRLLIKYASNLESGIPARFSGSGSGTDFTLTISSLEPEDFAVYYCQHSWGNPWTFGGGTKVEIKR
notes: Humanized 4B11, human IgG1; also called 4B11 (humanized); h4B11-IgG1
EC50 [1]: 0.132 µg/mL | IC50 [2]: 0.284 µg/mL | EC50 (read off the curve) (human GITR (ECD)-mFc): ~0.005 µg/mL

B5: 4E4 (murine) (antibody, V domains shown)
VH: EVQLQQSGPELVKPGASVKISCKASGYTFTDHYMNWVKQSHGKSLEWIGDIDPKNGGTLYNQNFKGRATLTVDKSSSTAYMDLRSLTSEDSAVYYCARREAMDYWGQGTSVTVSS
VL: DVLMTQIPLSLPVSFGDQASISCRSSQSIVYSNGNTYLNWYLQKPGQSPKLLIYKVSNRFSGVPDRFSGSGSGTDFTLKISRVEAEDLGVYYCFQGSHVPWTFGGGTKLEIKR
notes: Mouse hybridoma monoclonal antibody
EC50 (GITR-ECD-hFc): 0.0017 µg/mL

B7: 9B3 (murine) (antibody, V domains shown)
VH: QVQLQQSGAELMNLGASVKISCKATGYPVSRYWIEWLKQRPGHGPEWIGEILPGSDYANYNEKFKGKATFTADISSNSAYMQLSSLTSEDSAVYYCSRKGAYYALDFWGQGTSVTVSS
VL: DIVMTQSPATLSVTPGERVSLSCRASQSVNNYLHWYQQKSHESPRLLISYVSQSISGISSRFSGSGSGTDFTLIIHSVETEDFGMYFCQQSNRWPLTFGAGTKLELK
notes: as for B5
IC50 [3]: 0.0413 µg/mL

Next, values leading:

EC50 [1]: 0.112 µg/mL | IC50 [2]: 0.101 µg/mL | EC50 (read off the curve) (human GITR (ECD)-mFc): ~0.02 µg/mL
B2: 3F5 (humanized) -hIgG1 (antibody, V domains shown)
VH: QVQLVQSGAEVKKPGASVKVSCKASGYTFTDHYMHWVRQAPGQGLEWIGDINPNSGGTINNQNFKGRATLTVDKSISTAYMELSRLRSDDTAVYYCARGFSGLAYWGQGTLVTVSS
VL: DIVMTQTPLSSPVTLGQPASISCKSSQSLLDRDGKTYLNWLQQRPGQPPRRLIYLVSILDSGVPDRFSGSGAGTDFTLKISRVEAEDVGVYYCWQGTHFPWTFGQGTKLEIKR
notes: also called h3F5-hIgG1; h3F5-IgG1

EC50 [1]: 0.102 µg/mL | IC50 [2]: 0.151 µg/mL | EC50 (read off the curve) (human GITR (ECD)-mFc): ~0.006 µg/mL
B3: 10E11VH(G24A/A67V)-hIgG1(3A) (antibody)
heavy: EVQLVQSGAEVKKPGESLRISCKASGYPVSRYWIEWVRQMPGKGLEWIGEILPGSDYANYNEKFKGHVTFSADISISTAYLQWSSLKASDTAMYYCSRKGAYYALDFWGQGTLVTVSSASTKGPSVFPLAPSSKSTSGGTAALGCLVKDYFPEPVTVSWNSGALTSGVHTFPAVLQSSGLYSLSSVVTVPSSSLGTQTYICNVNHKPSNTKVDKKVEPKSCDKTHTCPPCPAPELLGGPSVFLFPPKPKDTLMISRTPEVTCVVVDVSHEDPEVKFNWYVDGVEVHNAKTKPREEQYNATYRVVSVLTVLHQDWLNGKEYKCKVSNKALPAPIAATISKAKGQPREPQVYTLPPSRDELTKNQVSLTCLVKGFYPSDIAVEWESNGQPENNYKTTPPVLDSDGSFFLYSKLTVDKSRWQQGNVFSCSVMHEALHNHYTQKSLSLSPG
light: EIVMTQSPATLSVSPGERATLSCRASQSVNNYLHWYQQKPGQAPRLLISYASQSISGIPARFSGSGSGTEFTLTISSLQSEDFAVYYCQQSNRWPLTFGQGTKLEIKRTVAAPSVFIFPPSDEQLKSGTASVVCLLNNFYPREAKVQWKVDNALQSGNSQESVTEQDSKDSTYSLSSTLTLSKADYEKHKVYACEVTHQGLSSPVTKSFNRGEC
notes: Humanized 10E11 (AV), human IgG1 with the 3A Fc variant; also called 10E11VH(AV)-hIgG1(3A); h10E11(AV)-hIgG1(3A)

EC50 [1]: 0.0895 µg/mL | IC50 [2]: 0.169 µg/mL | EC50 (read off the curve) (human GITR (ECD)-mFc): ~0.06 µg/mL
B4: h4E4-hIgG1 (antibody, V domains shown)
VH: QVQLVQSGAEVKKPGASVKVSCKASGYTFTDHYMNWVRQAPGQGLEWIGDIDPKNGGTLYNQNFKGRATLTVDKSISTAYMELSRLRSDDTAVYYCARREAMDYWGQGTLVTVSS
VL: B5 VL with L3V, I7S, S14T, F15P, D17E, Q18P, K50Q, L88V, L109V
notes: Humanized 4E4, human IgG1; also called 4E4 (humanized); h4E4-IgG1

EC50 (GITR-ECD-hFc): 0.0103 µg/mL | IC50 [3]: 4 µg/mL
B6: 13G12 (murine) (antibody, V domains shown)
VH: QVQLQQPGTELVKPGASVKLSCKASGYTFTSNWMNWVKQRPGHGLEWIGNIYPSNGGTNYNEKFKSKATLTVDKSSSTAYMQLRGLTSEDSAVYYCVRHSNYVGAMDYWGQGTSVTVSS
VL: QIVLTQSPAIMSASPGEKVTMTCGASSSVSYMYWFQQKPGSSPRLLIYDTFNLASGVPVRFSGSESGTSYSLTISRMEAEDAATYYCQHWSSYPPTFGSGTKLEIDR
notes: as for B5
